Measurements published in US20230279138A1 (CHIA TAI TIANQING PHARMACEUTICAL GROUP, published 2023).

What was measured:
[1] = molecular target: T1, CD20 on Raji cells (CD20+/CD3- cells) (human, UniProt P11836 1-297); experiment: cell-based or functional assay
T1 sequence (looked up): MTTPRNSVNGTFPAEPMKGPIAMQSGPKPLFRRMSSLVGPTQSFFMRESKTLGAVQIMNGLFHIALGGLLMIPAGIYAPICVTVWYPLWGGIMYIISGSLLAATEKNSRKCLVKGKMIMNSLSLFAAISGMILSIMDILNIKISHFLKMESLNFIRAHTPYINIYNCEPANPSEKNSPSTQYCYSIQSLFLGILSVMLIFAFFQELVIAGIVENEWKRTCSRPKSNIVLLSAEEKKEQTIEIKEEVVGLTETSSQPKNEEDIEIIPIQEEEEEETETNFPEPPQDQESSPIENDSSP

[2] = molecular target: T1, CD20 on Raji cells (CD20+/CD3- cells); experiment: cell-based or functional assay; remark: listed apart in the source
[3] = molecular target: T1, CD20 on Raji cells (CD20+/CD3- cells); experiment: cell-based or functional assay; remark: listed apart in the source
[4] = molecular target: T1, CD20 on Raji cells (CD20+/CD3- cells); experiment: cell-based or functional assay; remark: listed apart in the source
[5] = molecular target: T2, CD3 on Jurkat cells (CD3+/CD20- cells) (human, UniProt P07766 23-207; P04234 22-171; P09693 23-182); experiment: cell-based or functional assay
T2 sequence (P07766 23-207, chain 1 of 3): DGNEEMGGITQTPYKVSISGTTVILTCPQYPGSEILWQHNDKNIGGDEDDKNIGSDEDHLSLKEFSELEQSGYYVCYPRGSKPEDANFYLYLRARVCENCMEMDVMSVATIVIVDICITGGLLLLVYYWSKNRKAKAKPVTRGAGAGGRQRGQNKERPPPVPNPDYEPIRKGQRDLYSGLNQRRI
T2 sequence (P04234 22-171, chain 2 of 3): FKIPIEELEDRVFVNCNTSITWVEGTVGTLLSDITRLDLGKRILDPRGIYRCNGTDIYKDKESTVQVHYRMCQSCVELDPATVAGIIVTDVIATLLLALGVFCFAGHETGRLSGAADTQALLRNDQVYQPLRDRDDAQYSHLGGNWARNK
T2 sequence (P09693 23-182, chain 3 of 3): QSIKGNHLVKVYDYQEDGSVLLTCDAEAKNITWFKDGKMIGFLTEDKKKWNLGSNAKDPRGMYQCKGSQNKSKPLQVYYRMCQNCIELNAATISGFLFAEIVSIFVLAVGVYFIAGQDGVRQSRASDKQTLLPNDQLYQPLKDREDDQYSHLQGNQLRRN

[6] = molecular target: T1, CD20 on Raji cells (CD20+/CD3- cells); experiment: flow cytometry on Raji cells (CD20+/CD3-)
Protocol: (§1) After incubation, the cells were washed twice with cold 1% BSA/1×PBS. […] After being washed twice, the geometric mean fluorescence (MFI) of the stained cells was measured using a FACS Canto II […] (BD Biosciences). Wells containing no antibody or containing only fluorescent secondary antibody were used to establish background fluorescence. The EC50 values for cell binding were determined using GraphPad Prism 5 software (GraphPad Software, La Jolla, Calif.); each value was calculated by four-parameter non-linear regression analysis.

[7] = molecular target: T2, CD3 on Jurkat cells (CD3+/CD20- cells); experiment: flow cytometry on Jurkat 2B8 cells (CD3+/CD20-)
Protocol: as §1

[8] = molecular target: T1, CD20 on Raji cells (CD20+/CD3- cells); experiment: FACS on Raji cells after 14 days at 37 C in human serum
Protocol: as §1
(§2) The antibody was mixed with freshly collected human serum and the proportion of serum in the mixture sample was ensured to be >95%. The mixture sample was aliquoted and incubated at 37° C. for 0-14 days. […] The bindings of each sample to Raji or Jurkat cells was analyzed by FACS.

[9] = molecular target: T1, CD20 on Raji cells (CD20+/CD3- cells); experiment: FACS on Raji cells after 0, 1, 4 or 7 days at 37 C in human serum
Protocol: as §1, §2

Binder	cytotoxicity EC50, CD8+ T cells against NAMALWA cells (FACS) [1]	cytotoxicity EC50, CD8+ T cells against Raji cells (FACS) [1]	cytotoxicity EC50, CD8+ T cells against Ramos cells (FACS) [1]	EC50 of CD25 expression, CD4+ T cells with Raji cells [2]	EC50 of CD25 expression, CD8+ T cells with Raji cells [2]	EC50 of CD69 expression, CD4+ T cells with Raji cells [3]	EC50 of CD69 expression, CD8+ T cells with Raji cells [3]	EC50 of IL-2 release, CD4+ T cells with Raji cells [4]	EC50 of TNF-α release, CD4+ T cells with Raji cells [4]	EC50 ratio IL-2 release/Raji cell killing [4]	EC50 ratio TNFα release/Raji cell killing [4]	Biological activity (%) (EC50 of reference/EC50 of test sample; Jurkat luciferase reporter with Raji cells), lyophilized formulation, T0 [5]	EC50 [6]	TOP MFI [6]	EC50 [7]	TOP MFI [7]	EC50 (read off the curve) [8]	EC50 (read off the curve) [9]
W3278-U2T3.F18R-1.uIgG4.SP (bispecific antibody, Human IgG4 S228P, knobs-into-holes; also called WBP3278 lead Ab; W3278 lead Ab) heavy 1: QVQLQQPGAELVKPGASVKMSCKASGYTFTSYNMHWVKQTPGRGLEWIGAIYPGNGDTSYNQKFKGKATLTADKSSSTAYMQLSSLTSEDSAVYYCARSTYYGGDWYFNVWGAGTTVTVSAASTKGPSVFPLAPCSRSTSESTAALGCLVKDYFPEPVTVSWNSGALTSGVHTFPAVLQSSGLYSLSSVVTVPSSSLGTKTYTCNVDHKPSNTKVDKRVGGGGSGGGGSQVQLVQSGAEVKKPGSSVKVSCKASGFAFTDYYIHWVRQAPGQGLEWMGWISPGNVNTKYNENFKGRVTITADKSTSTAYMELSSLRSEDTAVYYCARDGYSLYYFDYWGQGTLVTVLEDLKNVFPPEVAVFEPSEAEISHTQKATLVCLATGFYPDHVELSWWVNGKEVHSGVCTDPQPLKEQPALQDSRYALSSRLRVSATFWQNPRNHFRCQVQFYGLSENDEWTQDRAKPVTQIVSAEAWGRYGPPCPPCPAPEFLGGPSVFLFPPKPKDTLMISRTPEVTCVVVDVSQEDPEVQFNWYVDGVEVHNAKTKPREEQFNSTYRVVSVLTVLHQDWLNGKEYKCKVSNKGLPSSIEKTISKAKGQPREPQVYTLPPCQEEMTKNQVSLWCLVKGFYPSDIAVEWESNGQPENNYKTTPPVLDSDGSFFLYSRLTVDKSRWQEGNVFSCSVMHEALHNHYTQKSLSLSLG heavy 2: QVQLQQPGAELVKPGASVKMSCKASGYTFTSYNMHWVKQTPGRGLEWIGAIYPGNGDTSYNQKFKGKATLTADKSSSTAYMQLSSLTSEDSAVYYCARSTYYGGDWYFNVWGAGTTVTVSAASTKGPSVFPLAPCSRSTSESTAALGCLVKDYFPEPVTVSWNSGALTSGVHTFPAVLQSSGLYSLSSVVTVPSSSLGTKTYTCNVDHKPSNTKVDKRVESKYGPPCPPCPAPEFLGGPSVFLFPPKPKDTLMISRTPEVTCVVVDVSQEDPEVQFNWYVDGVEVHNAKTKPREEQFNSTYRVVSVLTVLHQDWLNGKEYKCKVSNKGLPSSIEKTISKAKGQPREPQVCTLPPSQEEMTKNQVSLSCAVKGFYPSDIAVEWESNGQPENNYKTTPPVLDSDGSFFLVSRLTVDKSRWQEGNVFSCSVMHEALHNHYTQKSLSLSLG light 1: QIVLSQSPAILSASPGEKVTMTCRASSSVSYIHWFQQKPGSSPKPWIYATSNLASGVPVRFSGSGSGTSYSLTISRVEAEDAATYYCQQWTSNPPTFGGGTKLEIKRTVAAPSVFIFPPSDEQLKSGTASVVCLLNNFYPREAKVQWKVDNALQSGNSQESVTEQDSKDSTYSLSSTLTLSKADYEKHKVYACEVTHQGLSSPVTKSFNRGEC light 2: DIVMTQSPDSLAVSLGERATINCKSSQSLLNSRTRKNYLAWYQQKPGQPPKLLIYWASTRQSGVPDRFSGSGSGTDFTLTISSLQAEDVAVYYCTQSHTLRTFGGGTKVEIKPDIQNPDPAVYQLRDSKSSDKSVCLFTDFDSQTQVSQSKDSDVYITDKCVLDMRSMDFKSNSAVAWSQKSDFACANAFQNSIIPEDTFFPSPESS	0.0468 nM	0.00052 nM	0.00125 nM	0.0006 nM	0.0008 nM	0.0002 nM	0.0004 nM	0.0114 nM	0.0135 nM	22	26	114%	2.5 nM	66700 MFI	41.7 nM	4080 MFI	~6 nM	~6 nM
W3278-T3U2.F16-1.uIgG4.SP (bispecific antibody, Human IgG4 S228P, knobs-into-holes; also called W3278 BsAb; WBP3278 BsAb) heavy 1: QVQLVQSGAEVKKPGSSVKVSCKASGFAFTDYYIHWVRQAPGQGLEWMGWISPGNVNTKYNENFKGRVTITADKSTSTAYMELSSLRSEDTAVYYCARDGYSLYYFDYWGQGTLVTVLEDLKNVFPPEVAVFEPSEAEISHTQKATLVCLATGFYPDHVELSWWVNGKEVHSGVCTDPQPLKEQPALQDSRYALSSRLRVSATFWQNPRNHFRCQVQFYGLSENDEWTQDRAKPVTQIVSAEAWGRYGPPCPPCPAPEFLGGPSVFLFPPKPKDTLMISRTPEVTCVVVDVSQEDPEVQFNWYVDGVEVHNAKTKPREEQFNSTYRVVSVLTVLHQDWLNGKEYKCKVSNKGLPSSIEKTISKAKGQPREPQVYTLPPCQEEMTKNQVSLWCLVKGFYPSDIAVEWESNGQPENNYKTTPPVLDSDGSFFLYSRLTVDKSRWQEGNVFSCSVMHEALHNHYTQKSLSLSLG heavy 2: QVQLQQPGAELVKPGASVKMSCKASGYTFTSYNMHWVKQTPGRGLEWIGAIYPGNGDTSYNQKFKGKATLTADKSSSTAYMQLSSLTSEDSAVYYCARSTYYGGDWYFNVWGAGTTVTVSAASTKGPSVFPLAPCSRSTSESTAALGCLVKDYFPEPVTVSWNSGALTSGVHTFPAVLQSSGLYSLSSVVTVPSSSLGTKTYTCNVDHKPSNTKVDKRVGGGGSGGGGSQVQLQQPGAELVKPGASVKMSCKASGYTFTSYNMHWVKQTPGRGLEWIGAIYPGNGDTSYNQKFKGKATLTADKSSSTAYMQLSSLTSEDSAVYYCARSTYYGGDWYFNVWGAGTTVTVSAASTKGPSVFPLAPCSRSTSESTAALGCLVKDYFPEPVTVSWNSGALTSGVHTFPAVLQSSGLYSLSSVVTVPSSSLGTKTYTCNVDHKPSNTKVDKRVESKYGPPCPPCPAPEFLGGPSVFLFPPKPKDTLMISRTPEVTCVVVDVSQEDPEVQFNWYVDGVEVHNAKTKPREEQFNSTYRVVSVLTVLHQDWLNGKEYKCKVSNKGLPSSIEKTISKAKGQPREPQVCTLPPSQEEMTKNQVSLSCAVKGFYPSDIAVEWESNGQPENNYKTTPPVLDSDGSFFLVSRLTVDKSRWQEGNVFSCSVMHEALHNHYTQKSLSLSLG light 1: DIVMTQSPDSLAVSLGERATINCKSSQSLLNSRTRKNYLAWYQQKPGQPPKLLIYWASTRQSGVPDRFSGSGSGTDFTLTISSLQAEDVAVYYCTQSHTLRTFGGGTKVEIKPDIQNPDPAVYQLRDSKSSDKSVCLFTDFDSQTQVSQSKDSDVYITDKCVLDMRSMDFKSNSAVAWSQKSDFACANAFQNSIIPEDTFFPSPESS light 2: QIVLSQSPAILSASPGEKVTMTCRASSSVSYIHWFQQKPGSSPKPWIYATSNLASGVPVRFSGSGSGTSYSLTISRVEAEDAATYYCQQWTSNPPTFGGGTKLEIKRTVAAPSVFIFPPSDEQLKSGTASVVCLLNNFYPREAKVQWKVDNALQSGNSQESVTEQDSKDSTYSLSSTLTLSKADYEKHKVYACEVTHQGLSSPVTKSFNRGEC													> 1000 nM	55200 MFI	58.9 nM	6750 MFI		
